Target: 3XHA-ankyrin-G F1609R (UniProt G5E8K5)
Chain of UniProt G5E8K5 (G5E8K5 whole entry F1609R): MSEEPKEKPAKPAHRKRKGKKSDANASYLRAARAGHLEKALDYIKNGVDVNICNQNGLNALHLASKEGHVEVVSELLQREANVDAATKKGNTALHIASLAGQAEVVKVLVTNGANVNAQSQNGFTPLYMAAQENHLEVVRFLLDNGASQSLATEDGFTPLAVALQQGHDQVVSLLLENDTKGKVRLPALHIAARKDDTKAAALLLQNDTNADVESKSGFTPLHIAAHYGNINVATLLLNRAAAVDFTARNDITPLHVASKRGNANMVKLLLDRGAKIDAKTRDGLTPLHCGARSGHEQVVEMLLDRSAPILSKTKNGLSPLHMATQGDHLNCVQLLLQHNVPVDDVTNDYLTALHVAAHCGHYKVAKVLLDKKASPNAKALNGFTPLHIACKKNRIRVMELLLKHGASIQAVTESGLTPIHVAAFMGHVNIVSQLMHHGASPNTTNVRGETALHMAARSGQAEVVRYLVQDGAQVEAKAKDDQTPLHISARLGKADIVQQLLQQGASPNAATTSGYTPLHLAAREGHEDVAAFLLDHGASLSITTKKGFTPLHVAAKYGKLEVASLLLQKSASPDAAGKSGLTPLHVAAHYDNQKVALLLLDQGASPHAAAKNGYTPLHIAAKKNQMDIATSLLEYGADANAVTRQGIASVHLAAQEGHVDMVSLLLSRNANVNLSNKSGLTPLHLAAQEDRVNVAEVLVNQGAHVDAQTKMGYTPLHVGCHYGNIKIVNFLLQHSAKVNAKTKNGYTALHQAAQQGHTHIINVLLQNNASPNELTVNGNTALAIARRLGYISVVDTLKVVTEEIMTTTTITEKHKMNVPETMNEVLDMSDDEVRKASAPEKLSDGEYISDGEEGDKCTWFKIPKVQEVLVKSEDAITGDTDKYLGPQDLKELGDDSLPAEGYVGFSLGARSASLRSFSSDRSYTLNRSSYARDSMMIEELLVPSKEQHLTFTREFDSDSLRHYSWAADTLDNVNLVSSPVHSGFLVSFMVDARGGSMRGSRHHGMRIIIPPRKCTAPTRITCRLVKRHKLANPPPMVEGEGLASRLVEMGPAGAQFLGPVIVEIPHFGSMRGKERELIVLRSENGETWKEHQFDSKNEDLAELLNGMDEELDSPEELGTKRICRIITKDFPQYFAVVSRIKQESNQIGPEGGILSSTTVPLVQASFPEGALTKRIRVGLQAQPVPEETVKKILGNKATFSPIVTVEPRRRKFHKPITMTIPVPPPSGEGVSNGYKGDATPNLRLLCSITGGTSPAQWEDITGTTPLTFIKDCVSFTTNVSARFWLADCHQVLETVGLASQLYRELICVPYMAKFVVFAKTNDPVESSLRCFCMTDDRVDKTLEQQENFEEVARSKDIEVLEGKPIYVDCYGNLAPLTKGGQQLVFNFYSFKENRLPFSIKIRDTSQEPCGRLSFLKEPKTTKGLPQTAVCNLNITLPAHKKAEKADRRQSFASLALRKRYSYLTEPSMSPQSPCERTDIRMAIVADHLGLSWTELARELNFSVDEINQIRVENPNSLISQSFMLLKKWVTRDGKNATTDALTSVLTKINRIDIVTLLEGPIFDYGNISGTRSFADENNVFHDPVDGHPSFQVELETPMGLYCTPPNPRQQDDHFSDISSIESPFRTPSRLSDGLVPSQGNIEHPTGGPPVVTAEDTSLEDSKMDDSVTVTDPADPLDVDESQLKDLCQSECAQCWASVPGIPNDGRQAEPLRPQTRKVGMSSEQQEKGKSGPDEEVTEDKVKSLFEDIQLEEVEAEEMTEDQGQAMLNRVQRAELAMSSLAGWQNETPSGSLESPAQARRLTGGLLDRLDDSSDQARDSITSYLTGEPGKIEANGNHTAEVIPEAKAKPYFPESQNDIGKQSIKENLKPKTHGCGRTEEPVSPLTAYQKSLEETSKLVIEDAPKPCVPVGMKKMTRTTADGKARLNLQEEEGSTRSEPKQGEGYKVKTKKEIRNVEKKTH

FRAP in dendritic spines of primary cortical neurons: mobile fraction of GFP-ankyrin-G^F1609R against GFP-ankyrin-G^WT, 200 s after photobleaching (GFP-tagged forms of the constructs): 22.4%
Substance: Homer1b/c, endogenous (from UniProt Q9Z2Y3 1-366) (natural protein)
